Assay results: patent US20260242759A1, “GQ/11 Protein Peptidomimetics” (Vrije Universiteit Brussel, priority 2022, published 2026)
Positions of bridges follow the written chain, without caps; N, C: chain ends. Non-standard residues stand in square brackets, D forms with d. Lys(N3) = [N-]=[N+]=NCCCC[C@H](N)C(=O)O; Cha = N[C@@H](CC1CCCCC1)C(=O)O; Pra = C#CC[C@H](N)C(=O)O

T1: full-length human muscarinic 1 receptor with a FLAG tag at the N-terminus (human, UniProt P11229 1-460)
T1 sequence: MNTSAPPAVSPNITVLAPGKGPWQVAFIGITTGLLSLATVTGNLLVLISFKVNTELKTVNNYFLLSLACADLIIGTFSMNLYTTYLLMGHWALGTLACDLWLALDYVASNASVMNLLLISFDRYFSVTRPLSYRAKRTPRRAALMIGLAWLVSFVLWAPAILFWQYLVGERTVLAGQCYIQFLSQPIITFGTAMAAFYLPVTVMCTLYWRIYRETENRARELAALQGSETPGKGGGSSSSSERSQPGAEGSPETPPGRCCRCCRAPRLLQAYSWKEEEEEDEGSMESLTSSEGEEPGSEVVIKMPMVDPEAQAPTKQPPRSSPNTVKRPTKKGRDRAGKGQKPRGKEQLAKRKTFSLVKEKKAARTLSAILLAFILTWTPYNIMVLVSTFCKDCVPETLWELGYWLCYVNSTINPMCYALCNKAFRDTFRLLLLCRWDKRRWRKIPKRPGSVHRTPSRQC

B1: SBL-GQ-10 (peptide)
peptide: Ac-KKKFNDCKDIILQMNLREYN[Cha]V-OH
SMILES: CC[C@H](C)[C@H](NC(=O)[C@H](CC(=O)O)NC(=O)[C@H](CCCCN)NC(=O)[C@H](CS)NC(=O)[C@H](CC(=O)O)NC(=O)[C@H](CC(N)=O)NC(=O)[C@H](Cc1ccccc1)NC(=O)[C@H](CCCCN)NC(=O)[C@H](CCCCN)NC(=O)[C@H](CCCCN)NC(C)=O)C(=O)N[C@H](C(=O)N[C@@H](CC(C)C)C(=O)N[C@@H](CCC(N)=O)C(=O)N[C@@H](CCSC)C(=O)N[C@@H](CC(N)=O)C(=O)N[C@@H](CC(C)C)C(=O)N[C@@H](CCCNC(=N)N)C(=O)N[C@@H](CCC(=O)O)C(=O)N[C@@H](Cc1ccc(O)cc1)C(=O)N[C@@H](CC(N)=O)C(=O)N[C@@H](CC1CCCCC1)C(=O)N[C@H](C(=O)O)C(C)C)[C@@H](C)CC

Columns and labels:
[1] = biological target: T1, full-length human muscarinic 1 receptor …; assay: cell-based or functional assay
[2] = biological target: ghrelin receptor overexpressed on HEK293 cells (UniProt Q92847 1-366, limits assumed); assay: cell-based or functional assay
ghrelin receptor overexpressed on HEK293 cells, sequence (Q92847 whole entry): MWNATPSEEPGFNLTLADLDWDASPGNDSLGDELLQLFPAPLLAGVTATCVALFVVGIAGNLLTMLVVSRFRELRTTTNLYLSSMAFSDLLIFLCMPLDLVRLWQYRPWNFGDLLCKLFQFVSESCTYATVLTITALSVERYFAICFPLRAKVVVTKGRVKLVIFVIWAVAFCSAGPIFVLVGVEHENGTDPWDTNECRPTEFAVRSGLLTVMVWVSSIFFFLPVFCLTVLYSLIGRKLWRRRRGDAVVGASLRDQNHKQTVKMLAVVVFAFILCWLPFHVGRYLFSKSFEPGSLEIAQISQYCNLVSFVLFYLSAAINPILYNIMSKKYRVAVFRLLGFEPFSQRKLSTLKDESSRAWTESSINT

Row | Binder | IC50 (µM) of the agonist acetylcholine chloride for the M1 receptor in the presence of the peptidomimetic, RLA [1] [µM] | Shift (IC50 ratio without/with peptidomimetic), RLA [1] | EC50 (M) of the MK0677 agonist, IP-One Gq assay, peptidomimetic at 10 µM, n = 1 [2] [M] | EC50 (M) of the MK0677 agonist, IP-One Gq assay, peptidomimetic at 10 µM, n = 2 [2] [M] | EC50 (M) of the MK0677 agonist, IP-One Gq assay, peptidomimetic at 10 µM, n = 3 [2] [M]
1 | B1 | 409 | 2 | – | – | –
2 | H-RRRRFA[Pra]VKD[Lys(N3)]ILQLNLKEYNLV-OH (triazole 7-11) [SBL-GQ-14] | – | – | 6.96e-10 | 1.01e-10 | 1.87e-10
3 | Ac-KKKFNDCKDIILQMNLREYNLV-OH [SBL-GQ-08] | 413 | 2 | – | – | –
4 | Ac-KKKFAAVKDTILQLNLKEYNLV-OH [SBL-GQ-02] | 474 | 2 | – | – | –
5 | H-KKKFA[Pra]VKD[Lys(N3)]ILQLNLKEYNLV-OH (triazole 6-10) [SBL-GQ-13] | – | – | 4.42e-10 | 1.01e-10 | 1.31e-10
